Data: article PMC9775377, “The High-Resolution Structure Reveals Remarkable Similarity in PD-1 Binding of Cemiplimab and Dostarlimab, the FDA-Approved Antibodies for Cancer Immunotherapy” (Biomedicines, 2022)

Biological target: T1, extracellular domain of human PD-1 (aa 26-150) (human, UniProt Q15116)
T1 construct: Programmed cell death-1 (PD-1), human, extracellular domain, aa 26-150; any point mutation of the construct would be told there or in PDB 8GY5; also called Programmed cell death-1; ectodomain of PD-1
T1 sequence (Q15116 26-150): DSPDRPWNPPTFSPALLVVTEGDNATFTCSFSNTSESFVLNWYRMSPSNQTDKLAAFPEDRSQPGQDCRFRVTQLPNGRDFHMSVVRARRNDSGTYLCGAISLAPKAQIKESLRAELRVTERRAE
Experiment: crystal structure; Fab mixed with PD-1 at a molar ratio of 1:1.2, complex purified by gel filtration (20 mM Tris pH 7.5, 200 mM NaCl); hanging-drop vapor diffusion, 0.1 M sodium HEPES pH 7.5, 5% PEG 3350, 20 °C; 1.98 Å, two copies of the complex in the asymmetric unit
Details: both partners purified

binding result: binds
B1: cemiplimab Fab (Fab, V domains shown)
VH: EVQLLESGGVLVQPGGSLRLSCAASGFTFSNFGMTWVRQAPGKGLEWVSGISGGGRDTYFADSVKGRFTISRDNSKNTLYLQMNSLKGEDTAVYYCVKWGNIYFDYWGQGTLVTVSS
VL: DIQMTQSPSSLSASVGDSITITCRASLSINTFLNWYQQKPGKAPNLLIYAASSLHGGVPSRFSGSGSGTDFTLTIRTLQPEDFATYYCQQSSNTPFTFGPGTVVDFR
notes: heavy chain of the cemiplimab Fab; in PDB 8GY5 (deposited here); light chain (kappa) of the cemiplimab Fab; Cemiplimab is a fully human IgG4 (S228P) kappa antibody; also called Fab fragment of cemiplimab; LIBTAYO
